Results from the DeepSol protein solubility set.

test: soluble on expression in E. coli; label from the status in PepcDB or PDB records

Soluble on expression in E. coli, not soluble:
MGSDKIHHHHHHMVSEECSSFFYLHNSDFNMFGKKKNEDYSVKTVKVGVDKLTTIALGTMVKGTITVEGDLRLDGIIEGNVSCRGKVVIGPQGRIKGNVTCTGAVLHGMLQGDIQVAEDLIMKSGCTMNGDVYTCKLEIESKARFNGTCNTTEKDTLVTSQVVKPETVDTEK
MGSDKIHHHHHHMVTSPSLKGLQAFEAAARAGSFAAAAEELSVSAAAVSQLIRTVEEQMGRKLFHRVNRKVVLTEAGVEILPRLTMAFQEIGSVSRELDGDAFRPRLVVSVPPSMAMGWLSQRLAGFVASHGAADISLRGDDDPVPFDRELIDIRLSYGPHYREHPTEDIARDAVYPVCAPGLASAIKADGGPLAGLPLIHTDWGPTGASFPSWRNWFEAEGVQPGRAAQRGLSANSSRAALDLAISGLGVTLAQGVYCAEALEDGRLVRPAARVIALRQPYCLTIPERSARRDVVAAFRDWLIEECRRAVGSPALR
MGSDKIHHHHHHMWGFPRAGSSPALGTSRKRRSFLRFFLEENGVKEIELFGTKVLSGTRREFLNAIEERIEKNIKTFVVTMNASILLKAIEDAGYRAIVNSADLVVPDGFGVVWAMKTLTGETTERLPGVEIMKHLCERSKEKGWKVYLLGTKREIVEKAKQVLERSGVRVVGCHDGFFSEKESPKIVEDVNRSSTDLLFVGMGVPRQEEWIYRNFPQLNVKLAMGVGGSIDVVSGKKKRAPEWVQRMNLEWLYRFFQSPLSKRKVPVQVSKFVFFVLREKLKNRN
MGSDKIHHHHHHMWIVLDTNIYFNQWLLEGANFRVFRNFCNNTGATLLLPEVVKQEVQNKYDGELAQARIELDKLAAKFSKLGVECPSNLVVSDDYDFDQLVREQYRNVILVPYSGVAHEQLVEKALAPKLPFREKEKGYRDALMWLSILDYVKESGFKESIHFVNANSKDFYSNKSGGLTLHEDLKDDLRARNMETNIIPYTSLNEFVEGHVLQELHGVDWMDFYSEFNGELDSDVCVEAIAWLDECSLSVLREKLVEANYPGLIMDGVFAASFETWDGVEDSDILAMRKIDEDRYFIDYAFDIRGLEVKLLSSPTSPASGYFGAYIDVEIDNDLATTSFFTRADFKASVVFNITAEVVEDVDVTSFKFRPR
MGSDKIHHHHHHMWQAISRLLSEQLGEGEIELRNELPGGEVHAAWHLRYAGHDFFVKCDERELLPGFTAEADQLELLSRSKTVTVPKVWAVGADRDYSFLVMDYLPPRPLDAHSAFILGQQIARLHQWSDQPQFGLDFDNALSTTPQPNTWQRRWSTFFAEQRIGWQLELAAEKGIAFGNIDAIVEHIQQRLASHQPQPSLLHGDLWSGNCALGPDGPYIFDPACYWGDRECDLAMLPLHTEQPPQIYDGYQSVSPLPADFLERQPVYQLYTLLNRARLFGGQHLVIAQQSLDRLLAA
MGSDKIHHHHHHMWVCGLGVIRFGPAGKPVEFKGDIVKVPEFLRSIGLDALEYEAVRGVRISEAKARRLGEAARENGVILSMHAPYYVNLSSPDDSVVERSIKRLYDSMIASEWMGSYAVVVHPGYYKGLKSREEAVKRVIEALNRLIESLPSWVKTPWIAPETMGKQSQVGSLEETVEICLNTPRCRPCVDWAHLYARAEGKFVTSVDQVVKAIEYIESNLGREAVDPLHTHFSKIEYGKGGERMHHTLREEGYGPDWRIVCRAYKETGINAVVISESPILEKDALLMKSICKGEA
MGSDKIHHHHHHMYDLQELEAFVSVVRTGSLTASTRDLGLPKSTLSRRIRQLEENVGQPLLLRQSRKIVPNDAGRVFYRYCNDILELVVQGREALDELKAEVTGKLELRCHESFVRGWFSGVVESFMADHDDLRVAIHTQRNLPEAVEDGVCIWLGETGETALRQEVLGVLKQGIFGSPAYFRQHGKPAAPGELAHHPWVDLLGMADTGVILHHSRQGNFPLSLPDRRFTVDQFNVQGDAIAAGRGLGLMPVWLVERRLTAHPGSFQSCLPEWYGPDLPVTLLYPHGVLPRRVRAFIAHLRSCIPEEWTGGGGTATQAVPKSGTHHSNT
MGSDKIHHHHHHMYHDVSYLLSRLINGPLSLRQIYFASSNGPVPDLAYQVDFPRLEIVLEGEFVDTGAGATLVPGDVLYVPAGGWNFPQWQAPATTFSVLFGKQQLGFSVVQWDGKQYQNLAKQHVARRGPRIGSFLLQTLNEMQMQPQEQQTARLIVASLLSHCRDLLGSQIQTASRSQALFEAIRDYIDERYASALTRESVAQAFYISPNYLSHLFQKTGAIGFNEYLNHTRLEHAKTLLKGYDLKVKEVAHACGFVDSNYFCRLFRKNTERSPSEYRRQYHSQLTEKPTTPE
